{"source": "patent US11033620B2", "about": "“Combination therapies targeting tumor-associated stroma or tumor cells and microtubules” (BIOMED VALLEY DISCOVERIES, INC., priority 2014, dated 2021)", "system": "H460 cells", "assay": "Efficacy of M830 in the H460 non-small cell lung carcinoma xenograft model", "format": "in vivo, mouse", "details": "combination partner Paclitaxel", "description": "Animals were monitored for regression responses.\nThe statistical tests were not adjusted for multiple comparisons.\nCultured H460 cells were harvested during exponential growth and resuspended in phosphate buffered saline at a concentration of 1×10^8 cells/mL. 1.0×10^7 tumor cells were injected subcutaneously into the flank of athymic nude mice. Animals were euthanized when tumors reached the pre-determined volume endpoint of 2000 mm^3 or on the final day (Day 88), whichever came first.", "data": [{"molecule": "M830: TEM8 monoclonal antibody (hIgG1), VH SEQ ID NO:5, VL SEQ ID NO:6 (antibody, V domains shown, TEM830 mAb VH; TEM830 mAb VL) VH: EVQLVESGGGVVQPGRSVRLSCAASGFTFSTYTMHWVRQAPGKGLEWVAIISNDGSNKYYADPVRGRFTISRDNSKNTLYLQMNSLRAEDTAVYYCVRGSSWYRGNWFDPWGQGTLVTVSS VL: DIQMTQSPSSLSASVGDRVTIACRASQTISRYLNWYQQKPGKAPKLLIYAASSLQSGVSSRFSGSGSGTEFTLTISSLQPEDFATYFCQQTYSPPITFGQGTRLEIKR", "values": [{"measurement": "regression (in % Tumor Reduction vs. Vehicle at Day 21 cell)", "value": "−61", "unit": "%"}]}]}
